The nature of this data set: yeast display, Sf9 membrane polyspecificity reagent, FACS + sequencing; frameworks hold sequencing errors. The gist of the method: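 Nanobodies came from a synthetic yeast display library in Saccharomyces cerevisiae BJ5465, induced with galactose for 36–48 hours and stained for 1 hour at 4 °C with 10% biotinylated, detergent-solubilized Sf9 membrane reagent. Cells were enriched on streptavidin microbeads and then FACS-sorted, with low and high (top ~1%) gates set on anti-HA fluorescence for expression and streptavidin fluorescence for reagent binding. Each polyreactivity label reflects the gate a clone came from. Genes were amplified by colony PCR, sequenced by MiSeq 2 × 250 and filtered by CDR length.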
For the sequence “QVQLVESGGGLVQAGGSLRLSCAASGRTIGIYARGWYRQAPVKERELVADITIGGSTYYADSVKGRFTISRDNAKNTVFIQINSLKPEDTAVYYCAARNPGYTRTGRRYDSWGQGTQVTVSS”, the “polyreactivity (PSR sort gate)” value is given as “low polyreactivity”.
For “QVQLVESGGGLVQAGGSLRLSCAASGRTIIRNTMGWYRQAPGKERELVARISYGGGRTYYADSVKGRFTISRDNAKNTVYLQMNSLKPEDTAVYYCAKVTPPFWGGYWYNYWGQGTQVTVSS” the value was “high polyreactivity”; for “QVQLVESGGGLVQAGGSLRLSCAASGRTIIYNTMGWSRQAPGKEREFVAAINWSGGSTYYADSVKGCFTISRDNAKNTVYLQMNSLKPEDTAVYYCNAEAGYYRPLIYDYWGQGTQVTVSS”, “low polyreactivity”; for “QVQLVESGGGLVQAGGSLRLSCAASGRTIIYNTMGWYRQAPGKEREFVAAINWSGGSTYYADSVKGRFTISRDNAKNTVYLQMNSLKPEDTAVYYCNAEAGYYRPLIYDYWGQGTQVTVSS”, “low polyreactivity”.
In the case of “QVQLVESGGGLVQAGGSLRLSCAASGRTIKYYDMGWYRQAPGKERELVADISGRGGSTYYADSVKGRFTISRDNAKNTVYLQMNSLIPEDTAVYYCNAEWFTSSYAHYGMEHWGQGTQVTVSS”, the “polyreactivity (PSR sort gate)” value is reported as “low polyreactivity”.
Consider “QVQLVESGGGLVQAGGSLRLSCAASGRTINRYAMGWYRQAPGKESELVASINKSGTSTYYADAVKGRFTISRDNAKNTVYLQMNCLKPEDTGVYYWKTRYFWCSTYDYWGQGTEVTVSS”, for which the “polyreactivity (PSR sort gate)” value is listed as “high polyreactivity”.
For the sequence “QVQLVESGGGLVQAGGSLRLSCAASGRTIPTYVMGWYRQAPGKERELVASIRSGGRTKYADSVKGRFTISRDNAKNTVYLQMNSLKPEDTAVYYCAADYHGSPEYDYWGQGTQVTVSS”, the “polyreactivity (PSR sort gate)” value is recorded as “low polyreactivity”.
Take “QVQLVESGGGLVQAGGSLRLSCAASGRTIQYYAMGWYRQAPGKERELVAAITRSGGRTYYADSVKGRFTISRDNAKNTVYLQMNSLKPEDTAVYYCARVSSSVHVDYDYWGQGTQVTVSS”: the “polyreactivity (PSR sort gate)” value is “high polyreactivity”.
On to “QVQLVESGGGLVQAGGSLRLSCAASGRTIRSYAMGWYRQAPGKERELVAAITGSGGRTYYADSVKGRFTISRDNAKNTVYLQMNSLKPEDTAVYYCAARLRGSYDYWGQGTQVTVSS”, for which the “polyreactivity (PSR sort gate)” value is listed as “high polyreactivity”.
For the sequence “QVQLVESGGGLVQAGGSLRLSCAASGRTIRYYAMGWYRQAPGKERELVAAITQNGGRTYYADSVKGRFTISRDNAKNTVYLQMNSLKPEDTAVYYCAKAFIQPGYKYDSWGQGTQVTVSS”, the “polyreactivity (PSR sort gate)” value is given as “high polyreactivity”.
As for “QVQLVESGGGLVQAGGSLRLSCAASGRTIRYYAMGWYRQAPGKERELVAAITVTVTSTFYADSVKGRFTISRDDAKNTVYLQMNSLKPEDTAVYYCAKVDRQSPGQYYYWGQGSQVTVSS”, the “polyreactivity (PSR sort gate)” value is listed as “low polyreactivity”.
With “QVQLVESGGGLVQAGGSLRLSCAASGRTISRNTMGWYRQAPGKERELVAGITYGGDRTYYADSVKGRFTISRDNAKNTVYLQMNSLKPEDTAVYYCAAPWYWKGLRDYWGQGTQVNVSS”, the “polyreactivity (PSR sort gate)” value was “low polyreactivity”.
Regarding “QVQLVESGGGLVQAGGSLRLSCAASGRTISVYGMGWSRQAPGKERELVASITWRGGTTYYADSVKGRFTISRDNAKNSVYLQMNRLKPEDTAVYYCAAYWPYTTYRYRYDYWGQGTQVTVSS”, the “polyreactivity (PSR sort gate)” value is “high polyreactivity”.
For “QVQLVESGGGLVQAGGSLRLSCAASGRTISWYVMGWYRQAPGKERELVAAISWNGGRTYYADSVKGRFTISRDNAKNTVYLQMNSLKPEDTAVYYCAAKNYHGYPFDYWGQGTQVTVSS” the value was “high polyreactivity”.
On to “QVQLVESGGGLVQAGGSLRLSCAASGRTISYAMGWYRQAPGKERELVAAIRYRGGSTYYADSVKGRFTISRDNAKNTVYLQMNSLKPEDTADYYCDAQDSYTPPILFRRGYLRYDYWGQGTQVTVSS”, for which the “polyreactivity (PSR sort gate)” value is reported as “low polyreactivity”.
For the sequence “QVQLVESGGGLVQAGGSLRLSCAASGRTIVAYAMGWYRQAPGKERELVAAISWSTGSTYYADSVKGRFTISRDNAKNTVYLQMNSLKPEDTAVYYCAGLVWAPRDYWGQGTQVTVSS”, the “polyreactivity (PSR sort gate)” value is on record as “low polyreactivity”.
For “QVQLVESGGGLVQAGGSLRLSCAASGRTIVLYVMGWYRQAPGKEREFVADINAGGGSTYYADSVKGRFTISRDNAKNTVYLQMNSLKPEDTSVYYCAATRDLGQLFRFGYWGQSTQVTVSS” the value was “low polyreactivity”; for “QVQLVESGGGLVQAGGSLRLSCAASGRTIVYYAMGWYRQAPGKERDFVAAISRSGGRTSYADSVKGRFTISRDNAKNTVYLQMNSLKPEDTAVYYCAAEKRTQPTSREYYWGQGTQVTVSS”, “high polyreactivity”.
For “QVQLVESGGGLVQAGGSLRLSCAASGRTIWWYAMGWYRQAPGKERELVAAITWIGGSTYYADSVKGRFTISRDNAKNTVYLQMNSLKPEDTAVYYCATDKDDVSDLGKDYAYFEYDYWGQGTQVTVSS” the value was “low polyreactivity”; for “QVQLVESGGGLVQAGGSLRLSCAASGRTIYQYAKGWYRPAPGKERELVAAISRGGSTNYADSLKGRFTISRDNAKNTVLLQLNSLKPEDTAVYDCASWYKCLSLKRLYERDYWGHGTQVTVSS”, “high polyreactivity”; for “QVQLVESGGGLVQAGGSLRLSCAASGRTIYWNAMVWSRQAPGKERELVAAISNGGTTTYYADSVKGRFTISRDNAKNTVYLQMNSLKPEDTAVYYCAGDIRYFDYDYWGQGTQLTVSS”, “high polyreactivity”.
For the sequence “QVQLVESGGGLVQAGGSLRLSCAASGRTIYYNAIGRYIQAPVKEREFVATITCSGGSTYADSVKGRFTISRDNAKNTVYLQMNSLKPEDTAVYYCNADFSYTSEDQRALFTNVYYWGQGTQVTVSS”, the “polyreactivity (PSR sort gate)” value is on record as “low polyreactivity”.
Regarding “QVQLVESGGGLVQAGGSLRLSCAASGRTLARNAKGWYRQAPGKERELVASINGRTTRTYYADSVKGRFTISRDNAKNTVYLQMNSLKPEDTAVYYCAADPPGYVYGKRYYWGQGTQVTVSS”, the “polyreactivity (PSR sort gate)” value is on record as “high polyreactivity”.
Turning to “QVQLVESGGGLVQAGGSLRLSCAASGRTLASNAMGWYRQAPGKERELVAAINRGGSTYYADSVKGRFTISRDNAKNTVYLQMNSLKPEETAVYYCAVDRYRYPFDYWGQGTQVTVSS”, the “polyreactivity (PSR sort gate)” value was “low polyreactivity”.
For the sequence “QVQLVESGGGLVQAGGSLRLSCAASGRTLCVNAMGWYRQAPGKERELVAAISTRGTTTNYADSVKGRFTISRDIAKNTVYLQMNSLKPEDSAVYYCATRTYRTYPRYDYWGQGTQVTVSS”, the “polyreactivity (PSR sort gate)” value is reported as “low polyreactivity”.
With “QVQLVESGGGLVQAGGSLRLSCAASGRTLDIYTMGWYRQAPGKERELVAAISWSGGSTYYADSVKGRFTISRDNAKNTVYLQMNSLKPEDTAVYYCNRVPISYAGQLEHSLYDFWGQGTQVTVSS”, the “polyreactivity (PSR sort gate)” value is listed as “low polyreactivity”.
Turning to “QVQLVESGGGLVQAGGSLRLSCAASGRTLDVYAMGWYRQAPGKERELVADINWSGGRTYYADSVKGRFTISRDNAKNTVYLQMNSLIPEDTAVFYCAADLSWRQYYREYDYWGQGTQVTVSS”, the “polyreactivity (PSR sort gate)” value was “high polyreactivity”.
For “QVQLVESGGGLVQAGGSLRLSCAASGRTLFGYAMGWYRQAPGKERELVAAITYGATSTYADSVKGRFTISRDNAKNTVYLQMNSLKPEDTAVYYCNAYTPTDGFDYWGQGTQVTVSS” the value was “low polyreactivity”; for “QVQLVESGGGLVQAGGSLRLSCAASGRTLFRYAMGWYRQAPGKERELVAAISRSGGTTYYADSVKGRFTISRDNAKNTVYLQMNSLKPEDTAVYYCAARFVLRRDYGYWGQGTQVTVSS”, “high polyreactivity”.
Take “QVQLVESGGGLVQAGGSLRLSCAASGRTLGDYDMGSYRQAPGKERELVAAINWSGGDTYYADSVKGRFTISRDNANNTVYLQMNSLKPEDSAVYYCNADYVYTRYDYWGQGTQVTVSS”: the “polyreactivity (PSR sort gate)” value is reported as “high polyreactivity”.
Take “QVQLVESGGGLVQAGGSLRLSCAASGRTLGGYAMGWYRQAPGKERELVASITSTSSTYADSVKGRFTISRDNAKNTVYLQMNSLKPEDTAVYYCAADYFLTSYGWRIHYTYYYWGQGTQVTVSS”: the “polyreactivity (PSR sort gate)” value is given as “low polyreactivity”.
“QVQLVESGGGLVQAGGSLRLSCAASGRTLGGYAMGWYRQAPGKERELVAVITWNGGSTYADSVKGRFTISRDNAKNTVYLQMNSLKPEDTAVYYCAADRFNKPYYYWGQGTQVTVSS”: the “polyreactivity (PSR sort gate)” value is “high polyreactivity”.
Regarding “QVQLVESGGGLVQAGGSLRLSCAASGRTLGKYAMGWYRQAPGKERELVAAIRWTGGNTYYADSVKGRFTISRDNAKNTVYLQMNSLKPEDPAGYYCNAVSFGRARHGGPVYGYDYWGQGTQVTVSS”, the “polyreactivity (PSR sort gate)” value is recorded as “high polyreactivity”.
As to “QVQLVESGGGLVQAGGSLRLSCAASGRTLGRNAMGWYRQAPGKERELVASISSGGSTNYADSVKGRFTISRDNAKNTVYLQMNSLKPEDTAVYYCAAGYFRDYWGQGTQVTVSS”, the “polyreactivity (PSR sort gate)” value is “high polyreactivity”.
For the sequence “QVQLVESGGGLVQAGGSLRLSCAASGRTLGTYAMGWYRQAPGKERELVAAISVSSGSTYYADSVKGRFTISRDTAKNTVYLQMNSLKPEDTAVYYCAALPVYHYDSWGQGTQVTVSS”, the “polyreactivity (PSR sort gate)” value is “high polyreactivity”.
For the sequence “QVQLVESGGGLVQAGGSLRLSCAASGRTLGYNAMGWYSQAPGKEMDLVAAISYGGGGTYYADSVKGRCTISRDNAKNTVYLQMNSLKPEDTAVYYCAADYWYGAGLPHGTEFDYWGQGTQVTVSS”, the “polyreactivity (PSR sort gate)” value was “low polyreactivity”.
As to “QVQLVESGGGLVQAGGSLRLSCAASGRTLGYYAMGWYRQAPGKERELVAAISGSGGITYYADSVKGRFTISRDNAKNTVYLQMNSLKPEDTAVYYCNVDPTAKWFNYDSWGQGTQVTVSS”, the “polyreactivity (PSR sort gate)” value was “low polyreactivity”.
Regarding “QVQLVESGGGLVQAGGSLRLSCAASGRTLIVNTMGWYRQAPGKEREFVAAIFSGASTYYADSVKGRFTISRDNAMNTDYLQINSVKPEDTAVYYCAAAVFRWSRYDYWGQGTQVTVSS”, the “polyreactivity (PSR sort gate)” value is reported as “low polyreactivity”.
For “QVQLVESGGGLVQAGGSLRLSCAASGRTLKWYAMGWYRQAPGKERELVAAISWSGGSTYYADSVKGRFTISRDNAKNTVYLQMNSLKPEDTAVYYCAVAVTSYSSKKLYYWGQGTQVTVSS”, the “polyreactivity (PSR sort gate)” value is on record as “low polyreactivity”.
For “QVQLVESGGGLVQAGGSLRLSCAASGRTLLLNTMGWYRQAPGKERELVAAISWRDGSTYYADSVKGRFTISRDNAKNTVYLQMNSLKPEDTAVYYCNARLSGRSPYDLRFDYWGQGTQVTVSS” the value was “low polyreactivity”; for “QVQLVESGGGLVQAGGSLRLSCAASGRTLLPNAMGWYRQAPGKERELVADISTSDGSTRYADSVKGRFTISRDNAKNTVYLQMNSLKPEDTAVYYCAAGSEYYSSGGVRFSFYYWGQGTQVTVSS”, “low polyreactivity”.

These data come from the nanobody polyreactivity screen of Harvey et al. (2022).
